In patent EP3075390A1 (Immunomedics Inc., dated 2016):

B1: humanized R1 antibody (hR1) (antibody, V domains shown)
VH: QVQLQESGGGVVQPGRSLRLSCSASGFTFSDYYMYWVRQAPGKGLEWVAYITNYGGSTYYPDTVKGRFTISRDNAKNTLFLQMDSLRPEDTGVYFCARQSNYDYDGWFAYWGQGTPVTVSS
VL: DIQLTQSPSSLSASVGDRVTITCKASQEVGTAVAWYQQKPGKAPKLLIYWASTRHTGVPSRFSGSGSGTDFTFTISSLQPEDIATYFCQQYSNYPLTFGQGTKVEIKR
B2: murine anti-IGF-1R antibody R1 (antibody, V domains shown)
VH: EVKLVESGGGLVQPGGSLKLSCATSGFTFSDYYMYWVRQTPEKRLEWVAYITNYGGSTYYPDTVKGRFTISRDNAKNTLYLQMSRLRSEDTAMYFCARQSNYDYDGWFAYWGQGTTVTVSS
VL: DIVMTQSHKFMSTSVGDRVSITCKASQEVGTAVAWYQQKPGQSPKLLIYWASTRHTGVPDRFTGSGSGTDFTLTISNVQSEDLADYFCQQYSNYPLTFGAGAKLELKR
notes: also called ML04R1; murine R1
B3: chimeric R1 antibody (cR1) (antibody, V domains shown)
VH: B2 VH
VL: B2 VL
notes: Mouse-human chimeric mAb of R1, R1 VH and VK in the pdHL2 vector with human constant regions; also called clones 709.2D2 and 710.2G2

Experiments:
[1] = biological target: IGF-1R and EGP-1 together on MCF-7, DU-145 or ME-180 cells; test: flow cytometry (FACScan) on MCF-7 cells; structural control construct
EGP-1 [2] = biological target: EGP-1 (UniProt P09758); test: flow cytometry (FACScan) on MCF-7 cells
EGP-1 [3] = biological target: EGP-1 (UniProt P09758); test: flow cytometry (FACScan) on DU-145 cells
EGP-1 [4] = biological target: EGP-1 (UniProt P09758); test: flow cytometry (FACScan) on ME-180 cells
[5] = biological target: T1, recombinant human IGF-1R (rhIGF-1R) (human, UniProt P08069 31-935); test: labeled antibody on rhIGF-1R-coated beads; competitor: unlabeled R1
T1 construct: extracellular domain; also called immobilized recombinant human IGF-1R; IGF-1R-coated beads

[6] = biological target: T1, recombinant human IGF-1R (rhIGF-1R); test: labeled antibody on rhIGF-1R-coated beads; competitor: unlabeled 1-2
[7] = biological target: T1, recombinant human IGF-1R (rhIGF-1R); test: labeled antibody on rhIGF-1R-coated beads; competitor: unlabeled 1H7
[8] = biological target: T1, recombinant human IGF-1R (rhIGF-1R); test: labeled antibody on rhIGF-1R-coated beads; competitor: unlabeled 2C8
[9] = biological target: T1, recombinant human IGF-1R (rhIGF-1R); test: labeled antibody on rhIGF-1R-coated beads; competitor: unlabeled 3B7
[10] = biological target: T1, recombinant human IGF-1R (rhIGF-1R); test: labeled antibody on rhIGF-1R-coated beads; competitor: unlabeled cR1
[11] = biological target: T1, recombinant human IGF-1R (rhIGF-1R); test: labeled antibody on rhIGF-1R-coated beads; competitor: unlabeled hR1
[12] = biological target: T1, recombinant human IGF-1R (rhIGF-1R); test: labeled antibody on rhIGF-1R-coated beads; competitor: unlabeled 17-69
[13] = biological target: T1, recombinant human IGF-1R (rhIGF-1R); test: labeled antibody on rhIGF-1R-coated beads; competitor: unlabeled 24-31
[14] = biological target: T1, recombinant human IGF-1R (rhIGF-1R); test: labeled antibody on rhIGF-1R-coated beads; competitor: unlabeled 24-57
[15] = biological target: T1, recombinant human IGF-1R (rhIGF-1R); test: labeled antibody on rhIGF-1R-coated beads; competitor: unlabeled 24-60
[16] = biological target: T1, recombinant human IGF-1R (rhIGF-1R); test: labeled antibody on rhIGF-1R-coated beads; competitor: unlabeled αIR-3
[17] = biological target: T1, recombinant human IGF-1R (rhIGF-1R); test: labeled antibody on rhIGF-1R-coated beads; competitor: unlabeled MAB391
[18] = biological target: IGF-1R and EGP-1 together on MCF-7, DU-145 or ME-180 cells; test: flow cytometry (FACScan) on MCF-7 cells; control antibody
[19] = biological target: IGF-1R and EGP-1 together on MCF-7, DU-145 or ME-180 cells; test: flow cytometry (FACScan) on DU-145 cells; control antibody
[20] = biological target: IGF-1R and EGP-1 together on MCF-7, DU-145 or ME-180 cells; test: flow cytometry (FACScan) on ME-180 cells; control antibody
[21] = biological target: IGF-1R on human cancer cell lines (human) (UniProt P08069); test: 125I-IGF-1 binding to MCF-7L cells with antibody at 100 ng/mL
[22] = biological target: IGF-1R on human cancer cell lines (human) (UniProt P08069); test: 125I-IGF-1 binding to MCF-7L cells with antibody at 1000 ng/mL
[23] = biological target: IGF-1R on human cancer cell lines (human) (UniProt P08069); test: flow cytometry (FACScan) on MCF-7 cells
[24] = biological target: IGF-1R on human cancer cell lines (human) (UniProt P08069); test: flow cytometry (FACScan) on DU-145 cells
[25] = biological target: IGF-1R on human cancer cell lines (human) (UniProt P08069); test: flow cytometry (FACScan) on ME-180 cells
[26] = biological target: T2, recombinant human insulin receptor (rhIR) (human, UniProt P06213-2 28-944, limits assumed); test: hybridoma screening, assay not described
T2 construct: also called recombinant human IR

[27] = biological target: T1, recombinant human IGF-1R (rhIGF-1R); test: PE-tagged MAB391 on IGF-1R-coated beads with R1 at 100 µg/mL
[28] = biological target: T2, recombinant human insulin receptor …; test: ELISA on immobilized rhIR
[29] = biological target: T1, recombinant human IGF-1R (rhIGF-1R); test: ELISA on immobilized rhIGF-1R (FIG. 3)

T1 sequence (P08069 31-935): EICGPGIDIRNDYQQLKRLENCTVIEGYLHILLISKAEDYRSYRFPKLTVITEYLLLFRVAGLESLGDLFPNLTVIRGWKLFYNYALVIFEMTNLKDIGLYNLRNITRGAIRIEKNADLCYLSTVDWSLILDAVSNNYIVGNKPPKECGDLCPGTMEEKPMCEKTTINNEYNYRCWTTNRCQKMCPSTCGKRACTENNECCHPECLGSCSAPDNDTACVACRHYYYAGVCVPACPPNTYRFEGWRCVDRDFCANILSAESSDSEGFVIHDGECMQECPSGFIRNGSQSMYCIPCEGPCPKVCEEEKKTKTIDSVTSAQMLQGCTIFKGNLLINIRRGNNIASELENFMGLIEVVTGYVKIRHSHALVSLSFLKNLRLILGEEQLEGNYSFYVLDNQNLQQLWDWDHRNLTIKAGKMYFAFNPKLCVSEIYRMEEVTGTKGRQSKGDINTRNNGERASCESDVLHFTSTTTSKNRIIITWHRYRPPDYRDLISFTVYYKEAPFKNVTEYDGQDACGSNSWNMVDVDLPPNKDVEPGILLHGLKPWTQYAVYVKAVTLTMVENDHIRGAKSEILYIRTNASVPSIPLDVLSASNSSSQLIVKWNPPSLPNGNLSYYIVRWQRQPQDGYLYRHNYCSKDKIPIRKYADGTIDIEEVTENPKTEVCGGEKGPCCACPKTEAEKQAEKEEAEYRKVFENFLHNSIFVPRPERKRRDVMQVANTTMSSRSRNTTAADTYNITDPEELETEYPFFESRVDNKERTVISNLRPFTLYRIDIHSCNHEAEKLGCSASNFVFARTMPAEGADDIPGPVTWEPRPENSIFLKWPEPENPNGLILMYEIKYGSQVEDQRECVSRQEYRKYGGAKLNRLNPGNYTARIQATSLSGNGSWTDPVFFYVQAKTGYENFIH
Sequence of IGF-1R on human cancer cell lines (human) (P08069 31-1367): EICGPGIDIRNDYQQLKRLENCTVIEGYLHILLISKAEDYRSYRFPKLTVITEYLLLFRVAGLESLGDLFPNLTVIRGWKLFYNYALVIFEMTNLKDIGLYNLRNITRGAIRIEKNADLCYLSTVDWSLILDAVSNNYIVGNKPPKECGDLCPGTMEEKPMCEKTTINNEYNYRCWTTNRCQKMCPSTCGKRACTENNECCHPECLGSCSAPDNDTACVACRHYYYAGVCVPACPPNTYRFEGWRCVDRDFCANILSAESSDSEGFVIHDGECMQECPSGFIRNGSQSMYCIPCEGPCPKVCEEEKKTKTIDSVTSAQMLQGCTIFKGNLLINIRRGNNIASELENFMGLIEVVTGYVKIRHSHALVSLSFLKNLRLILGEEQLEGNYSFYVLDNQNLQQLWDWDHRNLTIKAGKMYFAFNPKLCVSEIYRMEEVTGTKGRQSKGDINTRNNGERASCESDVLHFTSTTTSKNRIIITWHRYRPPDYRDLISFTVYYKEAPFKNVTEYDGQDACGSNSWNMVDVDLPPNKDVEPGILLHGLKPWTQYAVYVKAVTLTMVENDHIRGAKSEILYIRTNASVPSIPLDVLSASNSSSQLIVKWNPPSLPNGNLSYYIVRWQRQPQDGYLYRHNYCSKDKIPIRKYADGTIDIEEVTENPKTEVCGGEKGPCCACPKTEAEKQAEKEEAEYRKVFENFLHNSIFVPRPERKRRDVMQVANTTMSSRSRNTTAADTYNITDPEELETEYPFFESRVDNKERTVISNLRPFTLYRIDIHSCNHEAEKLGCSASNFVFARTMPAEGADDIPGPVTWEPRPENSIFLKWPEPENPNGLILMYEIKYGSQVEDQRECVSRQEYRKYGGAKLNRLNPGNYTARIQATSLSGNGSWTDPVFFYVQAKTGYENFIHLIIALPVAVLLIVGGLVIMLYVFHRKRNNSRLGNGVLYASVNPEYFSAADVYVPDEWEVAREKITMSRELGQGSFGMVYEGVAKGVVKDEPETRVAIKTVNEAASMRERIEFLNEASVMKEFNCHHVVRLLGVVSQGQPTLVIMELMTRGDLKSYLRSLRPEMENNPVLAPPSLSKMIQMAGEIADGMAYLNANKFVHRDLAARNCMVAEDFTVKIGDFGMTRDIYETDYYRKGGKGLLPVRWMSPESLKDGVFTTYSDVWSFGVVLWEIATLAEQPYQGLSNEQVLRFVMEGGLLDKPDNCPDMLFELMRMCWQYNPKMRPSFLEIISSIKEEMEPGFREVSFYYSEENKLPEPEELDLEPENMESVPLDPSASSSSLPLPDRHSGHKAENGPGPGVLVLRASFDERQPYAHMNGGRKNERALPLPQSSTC
Sequence of EGP-1 (P09758 27-323): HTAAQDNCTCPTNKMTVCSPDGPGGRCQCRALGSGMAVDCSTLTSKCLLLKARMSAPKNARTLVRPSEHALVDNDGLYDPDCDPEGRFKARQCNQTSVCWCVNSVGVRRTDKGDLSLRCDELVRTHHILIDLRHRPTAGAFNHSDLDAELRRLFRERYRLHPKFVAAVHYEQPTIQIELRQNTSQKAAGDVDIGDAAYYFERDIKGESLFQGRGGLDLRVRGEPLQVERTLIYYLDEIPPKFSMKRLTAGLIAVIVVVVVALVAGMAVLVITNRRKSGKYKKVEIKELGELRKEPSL
T2 sequence (P06213 other isoform, or with tags, fused parts or gaps limits assumed): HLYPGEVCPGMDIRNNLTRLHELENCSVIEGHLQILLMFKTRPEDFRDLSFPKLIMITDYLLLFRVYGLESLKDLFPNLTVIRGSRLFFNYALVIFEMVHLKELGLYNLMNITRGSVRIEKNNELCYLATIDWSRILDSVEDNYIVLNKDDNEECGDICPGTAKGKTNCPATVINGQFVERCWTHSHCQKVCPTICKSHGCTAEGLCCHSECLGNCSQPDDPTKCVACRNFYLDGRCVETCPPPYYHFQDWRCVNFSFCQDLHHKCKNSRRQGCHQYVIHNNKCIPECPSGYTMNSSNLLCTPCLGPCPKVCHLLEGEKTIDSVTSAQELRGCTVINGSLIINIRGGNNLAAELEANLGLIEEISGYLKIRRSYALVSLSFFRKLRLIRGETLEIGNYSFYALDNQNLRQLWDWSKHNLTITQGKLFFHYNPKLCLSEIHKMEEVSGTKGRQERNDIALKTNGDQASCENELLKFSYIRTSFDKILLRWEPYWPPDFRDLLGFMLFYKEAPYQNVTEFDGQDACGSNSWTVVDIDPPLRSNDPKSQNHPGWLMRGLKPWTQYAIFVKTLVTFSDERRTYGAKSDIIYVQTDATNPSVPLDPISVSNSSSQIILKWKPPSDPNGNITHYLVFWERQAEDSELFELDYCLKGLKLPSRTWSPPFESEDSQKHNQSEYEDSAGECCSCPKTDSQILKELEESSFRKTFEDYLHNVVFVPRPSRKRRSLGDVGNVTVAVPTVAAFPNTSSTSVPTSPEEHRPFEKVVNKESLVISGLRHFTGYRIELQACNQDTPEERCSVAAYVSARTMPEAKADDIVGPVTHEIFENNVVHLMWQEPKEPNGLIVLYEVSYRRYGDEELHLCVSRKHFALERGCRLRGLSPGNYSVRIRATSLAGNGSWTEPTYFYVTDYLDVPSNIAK

| Molecule | % binding of labeled antibody [5] [%] | % binding of labeled antibody [6] [%] | % binding of labeled antibody [7] [%] | % binding of labeled antibody [8] [%] | % binding of labeled antibody [9] [%] | % binding of labeled antibody [10] [%] | % binding of labeled antibody [11] [%] | % binding of labeled antibody [12] [%] | % binding of labeled antibody [13] [%] | % binding of labeled antibody [14] [%] | % binding of labeled antibody [15] [%] | % binding of labeled antibody [16] [%] | % binding of labeled antibody [17] [%] | other results |
| --- | --- | --- | --- | --- | --- | --- | --- | --- | --- | --- | --- | --- | --- | --- |
| 22-20 (DNL construct of hLL2 IgG-AD2 and hA20 Fab-DDD2) (bispecific antibody) |  |  |  |  |  |  |  |  |  |  |  |  |  | % Positive [1]: 3.1%; MFI [1]: 2.11 |
| Hex-hRS7 (hexavalent DNL construct of hRS7 IgG-AD2 and hRS7 Fab-DDD2) |  |  |  |  |  |  |  |  |  |  |  |  |  | % Positive (EGP-1 [2]): 99.9%; MFI (EGP-1 [2]): 35.7; % Positive (EGP-1 [3]): 93.7%; MFI (EGP-1 [3]): 17; % Positive (EGP-1 [4]): 100%; MFI (EGP-1 [4]): 59.6 |
| anti-IGF-1R antibody 24-60 | 0 | 100 | 100 | 88 | 79 | 0 | 0 | 82 | 18 | 88 | 0 | 21 | 0 |  |
| anti-IGF-1R antibody αIR-3 | 86 | 95 | 115 | 97 | 76 | 97 | 107 | 89 | 52 | 87 | 0 | 0 | 0 |  |
| human IgG (control) (antibody) |  |  |  |  |  |  |  |  |  |  |  |  |  | % Positive [18]: 2.34%; MFI [18]: 1.84; % Positive [19]: 1.44%; MFI [19]: 2.21; % Positive [20]: 1.37%; MFI [20]: 1.8 |
| mouse anti-IGF-1R monoclonal antibody MAB391 | 40 |  |  |  |  |  |  |  |  |  |  |  | 0 | % binding of 125I-IGF-1 [21]: 54%; % binding of 125I-IGF-1 [22]: 38% |
| B1 | 0 | 100 | 131 | 100 | 100 | 0 | 0 | 100 | 100 | 100 | 71 | 136 | 121 | % Positive [23]: 89.2%; MFI [23]: 9.93; % Positive [24]: 30.4%; MFI [24]: 5.33; % Positive [25]: 10.7%; MFI [25]: 3.65 |
| B2 | 0 |  | 150 |  | 117 | 0 | 0 |  |  |  | 43 | 143 |  | binding result [26]: no binding; % binding of 125I-IGF-1 [21]: 71%; % inhibition of the binding of PE-tagged MAB391 [27]: 50 to 60%; % binding of 125I-IGF-1 [22]: 58% |
| B3 |  |  |  |  |  |  |  |  |  |  |  |  |  | binding result [28]: no binding; Kd [29]: ~0.1 nM |
